Assay results taken from the supplement of paper PMC10567573.

B1: FCHO1 (parent)
chain: FTSSPSPFSSSSPENVEDSGLDSP

Variants of: B1
Assay: protein stability index of a GFP-peptide fusion (GPS, HEK-293T) (PSI 1-6); higher = more stable
Conditions: c terminus: a fixed tail appended
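Also: lentivirally expressed fusions sorted by FACS into six bins by GFP to DsRed ratio, PSI derived from sequencing read proportions per bin multiplied by bin number.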

Variant	protein stability index
FTSSPSPFSSSSPENVNDSGLDSP	2.1
FTSSPSPFSSSSPENVMDSGLDSP	2.32
FTSSPSPFSSSSPENVCDSGLDSP	1.68
FTSSPSPFSSSSPENVADSGLDSP	1.5
FTSSPSPFSSSSPENVFDSGLDSP	2.21
FTSSPSPFSSSSPENVHDSGLDSP	1.98
FTSSPSPFSSSSPENVIDSGLDSP	1.67
FTSSPSPFSSSSPENVSDSGLDSP	2.53
FTSSPSPFSSSSPENVGDSGLDSP	1.96
FTSSPSPFSSSSPENVVDSGLDSP	1.3
FTSSPSPFSSSSPENVDDSGLDSP	1.84
FTSSPSPFSSSSPENVTDSGLDSP	2.26
FTSSPSPFSSSSPENVPDSGLDSP	1.8
FTSSPSPFSSSSPENVQDSGLDSP	1.85
FTSSPSPFSSSSPENVKDSGLDSP	1.78
FTSSPSPFSSSSPENVRDSGLDSP	1.86
FTSSPSPFSSSSPENVWDSGLDSP	1.65
FTSSPSPFSSSSPENVLDSGLDSP	1.88
FTSSPSPFSSSSPENVYDSGLDSP	2.23
FTSSPSPFSSSSPENVECSGLDSP	2.17
FTSSPSPFSSSSPENVEYSGLDSP	2.27
FTSSPSPFSSSSPENVEGSGLDSP	1.83
FTSSPSPFSSSSPENVEASGLDSP	1.62
FTSSPSPFSSSSPENVEWSGLDSP	1.92

Variant	protein stability index
FTSSPSPFSSSSPENVELSGLDSP	2.05
FTSSPSPFSSSSPENVEKSGLDSP	1.91
FTSSPSPFSSSSPENVEPSGLDSP	2.01
FTSSPSPFSSSSPENVEVSGLDSP	1.73
FTSSPSPFSSSSPENVEMSGLDSP	1.99
FTSSPSPFSSSSPENVETSGLDSP	2.03
FTSSPSPFSSSSPENVEISGLDSP	2.01
FTSSPSPFSSSSPENVEESGLDSP	1.92
FTSSPSPFSSSSPENVEQSGLDSP	1.93
FTSSPSPFSSSSPENVESSGLDSP	1.82
FTSSPSPFSSSSPENVERSGLDSP	1.6
FTSSPSPFSSSSPENVENSGLDSP	2.42
FTSSPSPFSSSSPENVEFSGLDSP	2.26
FTSSPSPFSSSSPENVEHSGLDSP	2.7
FTSSPSPFSSSSPENVEDSGLKSP	1.74
FTSSPSPFSSSSPENVEDSGLRSP	2.04
FTSSPSPFSSSSPENVEDSGLGSP	1.86
FTSSPSPFSSSSPENVEDSGLYSP	2.42
FTSSPSPFSSSSPENVEDSGLHSP	2.29
FTSSPSPFSSSSPENVEDSGLISP	2.11
FTSSPSPFSSSSPENVEDSGLLSP	2.14
FTSSPSPFSSSSPENVEDSGLVSP	2.43
FTSSPSPFSSSSPENVEDSGLTSP	2.18
FTSSPSPFSSSSPENVEDSGLSSP	1.78

Variant	protein stability index
FTSSPSPFSSSSPENVEDSGLCSP	2.47
FTSSPSPFSSSSPENVEDSGLPSP	2.23
FTSSPSPFSSSSPENVEDSGLESP	2.6
FTSSPSPFSSSSPENVEDSGLQSP	1.83
FTSSPSPFSSSSPENVEDSGLFSP	1.31
FTSSPSPFSSSSPENVEDSGLWSP	2.62
FTSSPSPFSSSSPENVEDSGLASP	2
FTSSPSPFSSSSPENVEDSGLNSP	2.96
FTSSPSPFSSSSPENVEDSGLMSP	1.48
FTSSPSPFSSSSPENVEDSGLDGP	1.81
FTSSPSPFSSSSPENVEDSGLDKP	2.17
FTSSPSPFSSSSPENVEDSGLDFP	2.18
FTSSPSPFSSSSPENVEDSGLDHP	2.44
FTSSPSPFSSSSPENVEDSGLDRP	1.79
FTSSPSPFSSSSPENVEDSGLDTP	1.8
FTSSPSPFSSSSPENVEDSGLDNP	1.78
FTSSPSPFSSSSPENVEDSGLDVP	1.56
FTSSPSPFSSSSPENVEDSGLDPP	2.27
FTSSPSPFSSSSPENVEDSGLDDP	2.18
FTSSPSPFSSSSPENVEDSGLDQP	2.66
FTSSPSPFSSSSPENVEDSGLDWP	2.12
FTSSPSPFSSSSPENVEDSGLDEP	1.88
FTSSPSPFSSSSPENVEDSGLDYP	1.37
FTSSPSPFSSSSPENVEDSGLDAP	2.06

Variant	protein stability index
FTSSPSPFSSSSPENVEDSGLDMP	1.68
FTSSPSPFSSSSPENVEDSGLDLP	2.6
FTSSPSPFSSSSPENVEDSGLDIP	1.91
FTSSPSPFSSSSPENVEDSGLDCP	1.68
FTSSPSPFSSSSPENVEDSGLDSQ	2.32
FTSSPSPFSSSSPENVEDSGLDSA	1.38
FTSSPSPFSSSSPENVEDSGLDSS	1.94
FTSSPSPFSSSSPENVEDSGLDSI	1.96
FTSSPSPFSSSSPENVEDSGLDSV	2.02
FTSSPSPFSSSSPENVEDSGLDSK	1.96
FTSSPSPFSSSSPENVEDSGLDSM	2.24
FTSSPSPFSSSSPENVEDSGLDSE	1.84
FTSSPSPFSSSSPENVEDSGLDSY	2.35
FTSSPSPFSSSSPENVEDSGLDSN	1.81
FTSSPSPFSSSSPENVEDSGLDSL	1.98
FTSSPSPFSSSSPENVEDSGLDSW	1.54
FTSSPSPFSSSSPENVEDSGLDST	2.08
FTSSPSPFSSSSPENVEDSGLDSR	2.47
FTSSPSPFSSSSPENVEDSGLDSC	2.99
FTSSPSPFSSSSPENVEDSGLDSH	2.42
FTSSPSPFSSSSPENVEDSGLDSF	1.89
FTSSPSPFSSSSPENVEDSGLDSG	1.77
FTSSPSPFSSSSPENVEDSGLDSD	1.85
